In patent publication US9816117B2, “Methods, reagents and cells for biosynthesizing compounds” (INVISTA North America S.á r.l., priority 2014, dated 2017):

Key:
[1] = carboxylate reductase enzyme activity assay (adipate to adipate semialdehyde); type: biochemical; settings: purified enzyme enhanced by sfp gene product; 2 mM adipate; room temperature, 20 min; against empty vector control (FIG. 12)
Experimental: A sequence encoding a HIS-tag was added to the genes from Segniliparus rugosus and Segniliparus rotundus that encode the carboxylate reductases of SEQ ID NOs: 4 and 6, respectively (see FIG. 9), such that N-terminal HIS tagged carboxylate reductases could be produced. Each of the modified genes was cloned into a pET Duet expression vector along with a sfp gene encoding a HIS-tagged phosphopantetheine transferase from Bacillus subtilis, both under the T7 promoter. Each expression vector was transformed into a BL21[DE3] E. coli host and the resulting recombinant E. coli strains were cultivated at 37° C. in a 250 mL shake flask culture containing 50 mL LB media and antibiotic selection pressure, with shaking at 230 rpm. Each culture was induced overnight at 37° C. using an auto-induction media.
The pellet from each induced shake flask culture was harvested via centrifugation. Each pellet was resuspended and lysed via sonication, and the cell debris was separated from the supernatant via centrifugation. […]
Enzyme activity assays (i.e., from adipate to adipate semialdehyde) were performed in triplicate in a buffer composed of a final concentration of 50 mM HEPES buffer (pH=7.5), 2 mM adipate, 10 mM MgCl2, 1 mM ATP and 1 mM NADPH. […] The consumption of NADPH was monitored by absorbance at 340 nm.

[2] = carboxylate reductase enzyme activity assay (adipate semialdehyde to hexanedial); type: biochemical; settings: purified enzyme enhanced by sfp gene product; 2 mM adipate semialdehyde; room temperature, 20 min; against empty vector control (FIG. 15)
Experimental: The N-terminal His-tagged carboxylate reductase of SEQ ID NO 6 (see Example 2, Example 3 and FIG. 9) was assayed using adipate semialdehyde as substrate. The enzyme activity assay was performed in triplicate in a buffer composed of a final concentration of 50 mM HEPES buffer (pH=7.5), 2 mM adipate semialdehyde, 10 mM MgCl2, 1 mM ATP and 1 mM NADPH. The enzyme activity assay reaction was initiated by adding purified carboxylate reductase and phosphopantetheine transferase or the empty vector control to the assay buffer containing the adipate semialdehyde and then incubated at room temperature for 20 min. The consumption of NADPH was monitored by absorbance at 340 nm.

B1: SEQ ID NO 4: Segniliparus rugosus carboxylate reductase (Genbank Accession No. EFV11917.1) (protein, listed as Segniliparus rugosus)
chain: MGDGEERAKRFFQRIGELSATDPQFAAAAPDPAVVEAVSDPSLSFTRYLDTLMRGYAERPALAHRVGAGYETISYGELWARVGAIAAAWQADGLAPGDFVATVGFTSPDYVAVDLAAARSGLVSVPLQAGASLAQLVGILEETEPKVLAASASSLEGAVACALAAPSVQRLVVFDLRGPDASESAADERRGALADAEEQLARAGRAVVVETLADLAARGEALPEAPLFEPAEGEDPLALLIYTSGSTGAPKGAMYSQRLVSQLWGRTPVVPGMPNISLHYMPLSHSYGRAVLAGALSAGGTAHFTANSDLSTLFEDIALARPTFLALVPRVCEMLFQESQRGQDVAELRERVLGGRLLVAVCGSAPLSPEMRAFMEEVLGFPLLDGYGSTEALGVMRNGIIQRPPVIDYKLVDVPELGYRTTDKPYPRGELCIRSTSLISGYYKRPEITAEVFDAQGYYKTGDVMAEIAPDHLVYVDRSKNVLKLSQGEFVAVAKLEAAYGTSPYVKQIFVYGNSERSFLLAVVVPNAEVLGARDQEEAKPLIAASLQKIAKEAGLQSYEVPRDFLIETEPFTTQNGLLSEVGKLLRPKLKARYGEALEARYDEIAHGQADELRALRDGAGQRPVVETVVRAAVAISGSEGAEVGPEANFADLGGDSLSALSLANLLHDVFEVEVPVRIIIGPTASLAGIAKHIEAERAGASAPTAASVHGAGATRIRASELTLEKFLPEDLLAAAKGLPAADQVRTVLLTGANGWLGRFLALEQLERLARSGQDGGKLICLVRGKDAAAARRRIEETLGTDPALAARFAELAEGRLEVVPGDVGEPKFGLDDAAWDRLAEEVDVIVHPAALVNHVLPYHQLFGPNVVGTAEIIRLAITAKRKPVTYLSTVAVAAGVEPSSFEEDGDIRAVVPERPLGDGYANGYGNSKWAGEVLLREAHELVGLPVAVFRSDMILAHTRYTGQLNVPDQFTRLVLSLLATGIAPKSFYQQGAAGERQRAHYDGIPVDFTAEAITTLGAEPSWFDGGAGFRSFDVFNPHHDGVGLDEFVDWLIEAGHPISRIDDHKEWFARFETAVRGLPEAQRQHSLLPLLRAYSFPHPPVDGSVYPTGKFQGAVKAAQVGSDHDVPHLGKALIVKYADDLKALGLL
carboxylate reductase activity: acceptance of adipate as substrate (consumption of NADPH, absorbance at 340 nm) [1]: accepted adipate as substrate

B2: SEQ ID NO 6: Segniliparus rotundus carboxylate reductase (Genbank Accession No. ADG98140.1) (protein, listed as Segniliparus rotundus)
chain: MTQSHTQGPQASAAHSRLARRAAELLATDPQAAATLPDPEVVRQATRPGLRLAERVDAILSGYADRPALGQRSFQTVKDPITGRSSVELLPTFDTITYRELRERATAIASDLAHHPQAPAKPGDFLASIGFISVDYVAIDIAGVFAGLTAVPLQTGATLATLTAITAETAPTLFAASIEHLPTAVDAVLATPSVRRLLVFDYRAGSDEDREAVEAAKRKIADAGSSVLVDVLDEVIARGKSAPKAPLPPATDAGDDSLSLLIYTSGSTGTPKGAMYPERNVAHFWGGVWAAAFDEDAAPPVPAINITFLPLSHVASRLSLMPTLARGGLMHFVAKSDLSTLFEDLKLARPTNLFLVPRVVEMLYQHYQSELDRRGVQDGTREAEAVKDDLRTGLLGGRILTAGFGSAPLSAELAGFIESLLQIHLVDGYGSTEAGPVWRDGYLVKPPVTDYKLIDVPELGYFSTDSPHPRGELAIKTQTILPGYYKRPETTAEVFDEDGFYLTGDVVAQIGPEQFAYVDRRKNVLKLSQGEFVTLAKLEAAYSSSPLVRQLFVYGSSERSYLLAVIVPTPDALKKFGVGEAAKAALGESLQKIARDEGLQSYEVPRDFIIETDPFTVENGLLSDARKSLRPKLKEHYGERLEAMYKELADGQANELRDIRRGVQQRPTLETVRRAAAAMLGASAAEIKPDAHFTDLGGDSLSALTFSNFLHDLFEVDVPVGVIVSAANTLGSVAEHIDAQLAGGRARPTFATVHGKGSTTIKASDLTLDKFIDEQTLEAAKHLPKPADPPRTVLLTGANGWLGRFLALEWLERLAPAGGKLITIVRGKDAAQAKARLDAAYESGDPKLAGHYQDLAATTLEVLAGDFSEPRLGLDEATWNRLADEVDFISHPGALVNHVLPYNQLFGPNVAGVAEIIKLAITTRIKPVTYLSTVAVAAGVEPSALDEDGDIRTVSAERSVDEGYANGYGNSKWGGEVLLREAHDRTGLPVRVFRSDMILAHQKYTGQVNATDQFTRLVQSLLATGLAPKSFYELDAQGNRQRAHYDGIPVDFTAESITTLGGDGLEGYRSYNVFNPHRDGVGLDEFVDWLIEAGHPITRIDDYDQWLSRFETSLRGLPESKRQASVLPLLHAFARPGPAVDGSPFRNTVFRTDVQKAKIGAEHDIPHLGKALVLKYADDIKQLGLL
carboxylate reductase activity: acceptance of adipate as substrate (consumption of NADPH, absorbance at 340 nm) [1]: accepted adipate as substrate | carboxylate reductase activity: acceptance of adipate semialdehyde as substrate (consumption of NADPH, absorbance at 340 nm) [2]: accepted adipate semialdehyde as substrate
